{"source": "the supplement of paper PMC7125110", "parents": {"B1": {"name": "glmS ribozyme (parent)", "chain": "AUAAAAGCGCCAGAACUACAGAAAUGUAGUUGACGAGGAGGAGGUUUAUCGAAUUUUCGGCGGAUGCCUCCAAA"}}, "note": "± gives the standard error. Variants at the floor of the assay were thinned out.", "data": [{"variants_of": "B1", "assay": "self-cleavage kobs at 10000 uM GlcN6P; higher = faster cleavage; RNA array", "details": "with glucosamine-6-phosphate", "how_it_was_run": "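A hybridised Cy3 probe tracked barcoded ribozyme variants, transcribed in situ by E. coli RNA polymerase on sequenced MiSeq chips, at 37 °C. The variants received 40 μM to 10 mM glucosamine-6-phosphate in HEPES/KCl/Mg(OAc)2 buffer. kobs came from decay fits and kcat and KM from weighted Michaelis–Menten fits.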", "units": {"self-cleavage kobs at 10000 uM GlcN6P": "s⁻¹"}, "values": [{"variant": "A39U U47A C67U", "self-cleavage kobs at 10000 uM GlcN6P": "0.00456 ± 0.0007"}, {"variant": "A36G A42C G59U", "self-cleavage kobs at 10000 uM GlcN6P": "< 1e-05"}, {"variant": "A12C A64U", "self-cleavage kobs at 10000 uM GlcN6P": "3.59e-05 ± 5.3e-06"}, {"variant": "A12C G29A A36G", "self-cleavage kobs at 10000 uM GlcN6P": "< 1e-05"}, {"variant": "U57G A64G", "self-cleavage kobs at 10000 uM GlcN6P": "9.48e-05 ± 1.8e-05"}, {"variant": "A15G G41C U47G C61U U65A", "self-cleavage kobs at 10000 uM GlcN6P": "< 1e-05"}, {"variant": "A24C G29C", "self-cleavage kobs at 10000 uM GlcN6P": "0.00129 ± 0.00026"}, {"variant": "G29C U45A C68U", "self-cleavage kobs at 10000 uM GlcN6P": "0.000376 ± 0.00011"}, {"variant": "C61A U69C", "self-cleavage kobs at 10000 uM GlcN6P": "< 1e-05"}, {"variant": "A12G U30G U55G", "self-cleavage kobs at 10000 uM GlcN6P": "5.43e-05 ± 1.3e-05"}, {"variant": "A15U U30G G60C", "self-cleavage kobs at 10000 uM GlcN6P": "< 1e-05"}, {"variant": "C16A U45G A64G", "self-cleavage kobs at 10000 uM GlcN6P": "0.000258 ± 5.1e-05"}, {"variant": "A6U A15C A48C A64U", "self-cleavage kobs at 10000 uM GlcN6P": "< 1e-05"}, {"variant": "A53U U65G C67U", "self-cleavage kobs at 10000 uM GlcN6P": "0.00235 ± 0.00042"}, {"variant": "G9A A12G A36C G38C", "self-cleavage kobs at 10000 uM GlcN6P": "< 1e-05"}, {"variant": "G29A U31A U45G", "self-cleavage kobs at 10000 uM GlcN6P": "0.000217 ± 4.5e-05"}, {"variant": "C8G U30G G40A", "self-cleavage kobs at 10000 uM GlcN6P": "< 1e-05"}, {"variant": "C16A U55A C67G", "self-cleavage kobs at 10000 uM GlcN6P": "5.54e-05 ± 1.9e-05"}, {"variant": "G13U G40U C61U C68U", "self-cleavage kobs at 10000 uM GlcN6P": "< 1e-05"}, {"variant": "A12G U54C", "self-cleavage kobs at 10000 uM GlcN6P": "0.001 ± 0.00011"}, {"variant": "A15G U55G C58A", "self-cleavage kobs at 10000 uM GlcN6P": "0.000435 ± 8.3e-05"}, {"variant": "G43C U55A G60U", "self-cleavage kobs at 10000 uM GlcN6P": "< 1e-05"}, {"variant": "C50U A53U G62A", "self-cleavage kobs at 10000 uM GlcN6P": "< 1e-05"}, {"variant": "A6U U54C C71U", "self-cleavage kobs at 10000 uM GlcN6P": "0.000136 ± 2.2e-05"}, {"variant": "G13U C34U G37U A53U", "self-cleavage kobs at 10000 uM GlcN6P": "< 1e-05"}, {"variant": "A6U G9U A52U", "self-cleavage kobs at 10000 uM GlcN6P": "< 1e-05"}, {"variant": "G38C A53C C67U", "self-cleavage kobs at 10000 uM GlcN6P": "< 1e-05"}, {"variant": "G29C G44A U47C U49G U57G G60C C68U C70G", "self-cleavage kobs at 10000 uM GlcN6P": "< 1e-05"}, {"variant": "A39C G44A G59C", "self-cleavage kobs at 10000 uM GlcN6P": "< 1e-05"}, {"variant": "G41C C50A G62U", "self-cleavage kobs at 10000 uM GlcN6P": "< 1e-05"}, {"variant": "G29U U55C U57A", "self-cleavage kobs at 10000 uM GlcN6P": "4.36e-05 ± 1.5e-05"}, {"variant": "G43U G62A", "self-cleavage kobs at 10000 uM GlcN6P": "< 1e-05"}, {"variant": "G32C U54A C68G", "self-cleavage kobs at 10000 uM GlcN6P": "6.46e-05 ± 2e-05"}, {"variant": "G43U U55G", "self-cleavage kobs at 10000 uM GlcN6P": "3.47e-05 ± 1.3e-05"}, {"variant": "U30G U46C G51U C71U", "self-cleavage kobs at 10000 uM GlcN6P": "< 1e-05"}, {"variant": "C34A U46A G51A", "self-cleavage kobs at 10000 uM GlcN6P": "< 1e-05"}, {"variant": "G44U A48G C50U C71U", "self-cleavage kobs at 10000 uM GlcN6P": "< 1e-05"}, {"variant": "G29U U54A C68U", "self-cleavage kobs at 10000 uM GlcN6P": "0.000427 ± 0.00018"}, {"variant": "G7A C16U", "self-cleavage kobs at 10000 uM GlcN6P": "2.32e-05 ± 1.2e-05"}, {"variant": "G37U G43U G59A", "self-cleavage kobs at 10000 uM GlcN6P": "< 1e-05"}, {"variant": "C11G U30C A42C U55G C61A G62A C71G", "self-cleavage kobs at 10000 uM GlcN6P": "< 1e-05"}, {"variant": "C11G G13C G44A", "self-cleavage kobs at 10000 uM GlcN6P": "< 1e-05"}, {"variant": "C16A G29A U46C", "self-cleavage kobs at 10000 uM GlcN6P": "0.00011 ± 1.8e-05"}, {"variant": "U54C C58G G63C", "self-cleavage kobs at 10000 uM GlcN6P": "< 1e-05"}, {"variant": "C11G G66C", "self-cleavage kobs at 10000 uM GlcN6P": "< 1e-05"}, {"variant": "C10A U46A A48G", "self-cleavage kobs at 10000 uM GlcN6P": "< 1e-05"}, {"variant": "U31C G40C A53G", "self-cleavage kobs at 10000 uM GlcN6P": "0.000261 ± 9.7e-05"}, {"variant": "C11G G40C U54A C70U C71G", "self-cleavage kobs at 10000 uM GlcN6P": "< 1e-05"}, {"variant": "A15U G60U G62C", "self-cleavage kobs at 10000 uM GlcN6P": "< 1e-05"}, {"variant": "G13A A22U U45G", "self-cleavage kobs at 10000 uM GlcN6P": "7.33e-05 ± 1e-05"}, {"variant": "C8U U46G G66C C70G", "self-cleavage kobs at 10000 uM GlcN6P": "9.08e-05 ± 2.6e-05"}, {"variant": "G32A U54C U56C C58A", "self-cleavage kobs at 10000 uM GlcN6P": "9.78e-05 ± 2.1e-05"}, {"variant": "C10A A15C C16U G40A G44A C61G", "self-cleavage kobs at 10000 uM GlcN6P": "< 1e-05"}, {"variant": "A14G U31C C58A C68U C70U", "self-cleavage kobs at 10000 uM GlcN6P": "3.74e-05 ± 1.6e-05"}, {"variant": "A52C U54G C71G", "self-cleavage kobs at 10000 uM GlcN6P": "< 1e-05"}, {"variant": "G63A A64U C68U", "self-cleavage kobs at 10000 uM GlcN6P": "< 1e-05"}, {"variant": "A39C U57A C58G G63U", "self-cleavage kobs at 10000 uM GlcN6P": "< 1e-05"}, {"variant": "A14C C50G G62U C67G", "self-cleavage kobs at 10000 uM GlcN6P": "6.05e-05 ± 1.8e-05"}, {"variant": "A6C U45C U69G", "self-cleavage kobs at 10000 uM GlcN6P": "< 1e-05"}, {"variant": "G35C U47A G66U", "self-cleavage kobs at 10000 uM GlcN6P": "< 1e-05"}, {"variant": "G9U U30A C71U", "self-cleavage kobs at 10000 uM GlcN6P": "< 1e-05"}, {"variant": "A6G A42U G59U", "self-cleavage kobs at 10000 uM GlcN6P": "< 1e-05"}, {"variant": "A33U U57C C67G U69A", "self-cleavage kobs at 10000 uM GlcN6P": "< 1e-05"}, {"variant": "A14U C34G C71U", "self-cleavage kobs at 10000 uM GlcN6P": "< 1e-05"}, {"variant": "C8G A14C G38A U56A G59U", "self-cleavage kobs at 10000 uM GlcN6P": "< 1e-05"}, {"variant": "U56A C67U C71G", "self-cleavage kobs at 10000 uM GlcN6P": "5.21e-05 ± 8.7e-06"}, {"variant": "G13C U47G C70U", "self-cleavage kobs at 10000 uM GlcN6P": "5.23e-05 ± 1.4e-05"}, {"variant": "C16A U31A C70U", "self-cleavage kobs at 10000 uM GlcN6P": "0.00113 ± 0.00026"}, {"variant": "A6U A36U A42C U65C", "self-cleavage kobs at 10000 uM GlcN6P": "< 1e-05"}, {"variant": "G9U A15U C34A C58G", "self-cleavage kobs at 10000 uM GlcN6P": "< 1e-05"}, {"variant": "G32A U56A C67G", "self-cleavage kobs at 10000 uM GlcN6P": "0.000139 ± 2e-05"}, {"variant": "G13U U55G C67U", "self-cleavage kobs at 10000 uM GlcN6P": "0.0003 ± 6.1e-05"}, {"variant": "G37A G51U C68G", "self-cleavage kobs at 10000 uM GlcN6P": "< 1e-05"}, {"variant": "G38U A52U C58U", "self-cleavage kobs at 10000 uM GlcN6P": "< 1e-05"}, {"variant": "C34U U49C C50G C61U C68G C71G", "self-cleavage kobs at 10000 uM GlcN6P": "0.000303 ± 7.9e-05"}, {"variant": "A39G G44U C71U", "self-cleavage kobs at 10000 uM GlcN6P": "3.94e-05 ± 1.7e-05"}, {"variant": "A15U G43A G44C U45G", "self-cleavage kobs at 10000 uM GlcN6P": "< 1e-05"}, {"variant": "A12U G44U G51A", "self-cleavage kobs at 10000 uM GlcN6P": "< 1e-05"}, {"variant": "A12C G66C", "self-cleavage kobs at 10000 uM GlcN6P": "0.000754 ± 0.00033"}, {"variant": "C16A G35C A39U", "self-cleavage kobs at 10000 uM GlcN6P": "< 1e-05"}, {"variant": "G37C G63U", "self-cleavage kobs at 10000 uM GlcN6P": "< 1e-05"}, {"variant": "C11A U30C A39C G59U", "self-cleavage kobs at 10000 uM GlcN6P": "0.000272 ± 6.2e-05"}, {"variant": "G37U G38A U45G G51A", "self-cleavage kobs at 10000 uM GlcN6P": "< 1e-05"}, {"variant": "C8A C58U U69G", "self-cleavage kobs at 10000 uM GlcN6P": "0.0005 ± 8.7e-05"}]}]}
